Test results taken from the DeepSol protein solubility set.

Test: soluble on expression in E. coli; label from the status in PepcDB or PDB records

Sequence: MGSDKIHHHHHHMSKTRYYLEQCIPEMDDLVEKGLFTKNEVSLIMKKRTDFEHRLNSRGSSINDYIKYINYESNVNKLRAKRCKRILQVKKTNSLSDWSIQQRIGFIYQRGTNKFPQDLKFWAMYLNYMKARGNQTSYKKIHNIYNQLLKLHPTNVDIWISCAKYEYEVHANFKSCRNIFQNGLRFNPDVPKLWYEYVKFELNFITKLINRRKVMGLINEREQELDMQNEQKNNQAPDEEKSHLQVPSTGDSMKDKLNELPEADISVLGNAETNPALRGDIALTIFDVCMKTLGKHYINKHKGYYAISDSKMNIELNKETLNYLFSESLRYIKLFDEFLDLERDYLINHVLQFWKNDMYDLSLRKDLPELYLKTVMIDITLNIRYMPVEKLDIDQLQLSVKKYFAYISKLDSASVKSLKNEYRSYLQDNYLKKMNAEDDPRYKILDLIISKL
- soluble on expression in E. coli: not soluble

Sequence: MGHHHHHHSHMSQQRPDRIKQMLHYLWQHRHLSTQQAMELFGYAEATVRRDFQYIVNQYPGMIRGHGCLDFDDSTDDKEYVFDVKRTLQSVAKREIAALARTMIKDGDCFFLDSGSTCLELAKCLADARVKVICNDIKIANELGCFPHVESYIIGGLIRPGYFSVGESLALEMINAFSVERAFISCDALSLETGITNATMFEVGVKTRIIQRSREVILMADHSKFDAVEPHAVATLSCIKTIISDSGLPETIAQRYQRAGCQLFLPHSIK
- soluble on expression in E. coli: soluble

Sequence: MGSDKIHHHHHHMILGEIMEVLAFKNQSLIDHVNDMVKYWERIKYRYLKTIKRALEALNIKLDIEKVDEFMKILIKLHDIGKASKIYQRAIINDQEKLMGFRHELVSAYYTYHILLKKFGDKNLAFIGALTVMLHHEPIIMGQIRNLKKKELTAEVVLDKLKKFDGMIEDFEDLIKKLIGYSIGDIIKNDSNKDDIIRFVIEMSVRARHTPNSEKLRFIVGTLLLPLVMCDYKGAESREGKAPKFAEVLEVESYVI
- soluble on expression in E. coli: not soluble

Sequence: MGSDKIHHHHHHMDIPWLVERDDRNERIVLSIKTNAKEALENAYRKKSRVTGKMIAYVHDSCANFFCEEGWLQEGAVSTYFHNGQANVFSFFLKEDRQNSDHERLHREVLSYVQKIERTLELSSHAVQRLNEADTDSLAQLYRHVFERYPTDVFSAQYLQQTMKEGAKFVGVKEGTDIICAASAVPNGFGGWEITDCATKKEARGNGYLSSVLCELEQWLWEEGEENVYSITRSHSFGMNVTIKKRGFSYEGTMVNNCIIGTGFEDMNIWTKRLTATNIC
- soluble on expression in E. coli: not soluble

Sequence: MCITFIKTAKSSLDKYKLILLNNRDEQLLRPTKEMHWHDGILSGVDKQENARGTWLGLNENGRIGMMLSITQTQESKNLHAPSRGGIVNEFLNANDTSKMIESLKKCASKYNGFQLVAVEKNSTGLYEVRTLANQQVDEIEVCQLKDEYHVVSNSPPTKPYQKAVQGKKLLREHLENSDQFSVDQIFEKLLSIAKNTTQWYPDAQLQYQTQNVEEYNRPLSAIFIKYPEGTRMYGTRCHTLITVDQKDKINILERRLLPEQSTWHDARFEFVLNGS
- soluble on expression in E. coli: not soluble

Sequence: MKKILSILLALLLSISSLGVTTSHAEEKIHIEAAAALLFDADTGKILHEQNPDELLAIASMSKLIVVYAVLEAIKEGKITWDTKVNISDYAYEVSRNNEFSNVPFEKGRQYTVRELYHSIVIFSANGSSIALAELLAGSEKNFLNLANEHAKKLGLKKYKFVNATGLNNTDLKGKHPEGTDPNAENSMSARDMGILSKAMITKYPEMLEDTKQRFRNFPDNHPKPIRMENWNWMLPGAAFAYEGTDGLKTGSSDTAGYGFTITAKRGDVRLISVIIKTKSMDERFTESRELIEYGFNNFEKQKLKVDKNNTLSVAQGKEDQVTVAPEKEITVIAKKGSKNPYKIGTEVDKSLAEDGHLVAPIKKDAKVGSITLESTDKYGFLDGSNSMKVTAKTTEEVEKANWFVLTMRSIGDFFSNLWSKVF
- soluble on expression in E. coli: not soluble

Sequence: MIVMTQVRLSELVAPSFYEIHNDIKHNRYTHYWLKGGRGSTKSSFVSIEIILGVMKDPNANAVALRKVKETIKDSVFEQLVWAIEKLKVTEYWEIKHNPMELTYLPTGQKILFRGADKPRKIKSIKVSRGYVKFIWYEEVDEFLGMEEIRIINQSLMRGGEQFVVFYTYNPPNRVNAWVNEEILIDRPDRKVHHSTYLTVPRDWLGEQFFIEAEHLKKVNEKAYRHEYLGEVTGTGGEVFTNVKARKINDEEIKAFDRIKRGLDFGYAVDPAAYIVCHFDKTRRRLYIFHEIFQVGLSNRKLAELIKKENKSNKLVVADSAEPKSIAELRGYGINIRGAKKGPDSVEYGIKFLQDLEEIIIDPERCPNTLREFVNYELEKDKDGNFKAEFPDKNNHTIDAVRYALEDDMRTGGLSILK
- soluble on expression in E. coli: soluble

Sequence: MIKLVAFDLDGTIGNTLPMCIQAFKKATQPYIGHELSDEEMVHTFGLNEEGMIGCVVDEPYRQQALNDFYVIYKELHQEMCPTPFEGIRELIALLKQKGIIVALITGKGINSCDITLKQFNMKDSFAKVITGNAERNIKSEALKELLHDYHLAANEIVYVGDALSDITECRKANVMCLSAAWSIPQNEVTALENSNPKNVFYSISSLFKYL
- soluble on expression in E. coli: not soluble

Sequence: MALAHVSRRVISNQIRCFAAANQETSLVHVEKQFEAIEPEKRDKDAFMAAIATFKEKRGRTHVEFINTALKYVKEYGVHKDIDTYKGLLEVFPKGKMIPQTVFQKVFLHYPQQQNCAVKVLDEMEWHGVQPDKEIHDIVVNAFGEWNFATKKVKRMLYWMPKLKHSNKYLDRRHVEGKSLSPSELAGIALKMMSRDAASSISLLKLSDSSDPQQKWLATSQSPMQQILISELRKGDEVFVDAAKVYLQDRVIPFITLTGNTKLEPLNEFKNEDMDEDYTNWYADWQKQRGEAKRSIHEQDHETIFAMGAMYKDDNATAIRWIDNLQKTNPNMENLRFRVRLEGNPIISRK
- soluble on expression in E. coli: not soluble

Sequence: MSLSTMGPLGGISVIFDLDGTLVDSEPHYYEAGRRTLAEYGVPDFSWADHEAYVGISTQETVADWKRRYGLRATVEELLAVKNRHYLGLARTSARAYPEMRKFVELLAGEGVPMAVASGSSPEAIAAILARTGLDAHLRTVVSADEVARGKPAPDVFLEAARRLGTEPARCVVLEDAAPGAAAAHAAGMRCIAIPYVSGQADAPEFATAELLVRGGQEEFTARAAHDWLRTDGNATRETEGHHHHHH
- soluble on expression in E. coli: soluble

Sequence: MDWKKIYEDRTCTADEAVKSIKSGDRVLFAHCVAEPPVLVEAMVANAAAYKNVTVSHMVTLGKGEYSKPEYKENFTFEGWFTSPSTRGSIAEGHGQFVPVFFHEVPSLIRKDIFHVDVFMVMVSPPDHNGFCCVGVSSDYTMQAIKSAKIVLAEVNDQVPVVYGDTFVHVSEIDKFVETSHPLPEIGLPKIGEVEAAIGKHCASLIEDGSTLQLGIGAIPDAVLSQLKDKKHLGIHSEMISDGVVDLYEAGVIDCSQKSIDKGKMAITFLMGTKRLYDFAANNPKVELKPVDYINHPSVVAQCSKMVCINACLQVDFMGQIVSDSIGTKQFSGVGGQVDFVRGASMSIDGKGKAIIAMPSVAKKKDGSMISKIVPFIDHGAAVTTSRNDADYVVTEYGIAEMKGKSLQDRARALINIAHPDFKDELKAEFEKRFNAAFSAWSHPQFEK
- soluble on expression in E. coli: soluble

Sequence: MGSDKIHHHHHHMGIGRGYAVWSPRSIYLTDFVYANFLEELIMQTLIIYSTIDGQTLAICQKMKTIAEQAGEQVALVTLEQADALSLADFDKVLIGASIRYGKHRPELYQFVNRHHAVLDTKINGFFTVNVVARKPLKNTPETNPYMQKFLQLSLWQPQLLEVFAGKIDYPKYGFFDRTMIRFIMWMTKGPTDITGTFEFTDWEKVDAFGNRFSQH
- soluble on expression in E. coli: not soluble

Sequence: MKKVSSQILHQLRSQRGQSGMWCTNLTHSSTTHHQHPRQTSSHLLQRLESAPCLLKLSTTLLCLEIQQSMSLHPKEAILTTPDAVHREKMLTRSRKGDQTHEDQTDGTRKARNNIGPPNLFWITAKFQEQSTKMPNCWCLQLVNCAQSSILIGLWML
- soluble on expression in E. coli: not soluble

Sequence: MAHHHHHHMGGCVVSLMECKARSNEVPWELSEDVKSYGPLSVAVAGTQTPNSSAVYVNGKQSTLAAQQECGKQFYYGPNQPQRFAKLCQENLDSVALAYRRIEKMEKEQVAGASRPMDVAYFSEQCNLTYRELWHAVTGFSRGLAELGLEKRVNVTIYEETRWEWLASIYGIWMQDMVAATVYANLGEGALFHALRETECKAILCNGKSVPNLLRGVGSGAFPACTLIYLDNLPVAGCAELHGCRVVSWKDVVALGHGAGAHHGAAPPEDNESVALIMYTSGTTGDPKGVMHTHGSIVAGILTMDDWLYSVIKHRPDDVYLSYLPMAHIMEFGVVNILLARRAHVAFGTPRTLTDATARPHGDFTHFRPTLLIGVPRIFDTLKKAVEAKLPPVGTLKRQVFDHAYQSRLAALKEGKDTPFWNEKVFSQPRAALGGRVRAFLSGGGPLSETTQEFVNVVFGCIVNGWGLTETVCIGAIQRLGDLTPSAVGQVLCSEQLKLRDIDEYKHTDTPYPRGEICLRGPFLFKGYYKQPELTREVLDEDGWFHTGDVGSIDCEGRVSIVGRIKALAKNCLGEYIALEVLEAVYSSHPLVLHNCVCVLVDPCKNYICALVLTDESHVMRFAKANGIEGEYPSLLEKKELLEKAAASMAETARAARRRDFEVVRRVSLIDDEWSPEKGQLTAALKLRRGAIAKQYEKQITCLFAE
- soluble on expression in E. coli: not soluble

Sequence: METKPSQGLYPLHRCKTIHLVRHAQGIHNVEGEKNHKAYLSEDLFDAHLTPLGWQQVDNLHKHVNASGISNRIELVVVSPLLRTLQTAVGTFGGEGYKDGVNTPLLMTAGAGNSDRPAISRLNRPPFIAVESCREHLGVHPCDRRSNITKYRELFPAIDFSLIETDEDVLWKPDIREEDKDIATRGVKFFNWLSTRKEKEIAVVTHSGFLYQTLNSFGNDCDPSVKNEISKKFVNCELRSFVLVDKCMSSSDPPMTNYPGTILTGEDASSDIADQK
- soluble on expression in E. coli: soluble

Sequence: MGSDKIHHHHHHFDEETAFQSPTLVYVNTVASLYNNMFKIMGNDRHVYDLNTFSSDEAMLPCRIGDWEDGGLWQNIFLHRWGTMNDLTKNSWDFLYEQIGKCNQSVDKLQAFAEEQPDVEYFKVYLEEVRAVRAFFYYELLDLFARVPLVTSSTTPMSEVKQSERSVVFNFVRSELEEALPYLSDNRSNQKGEYYGRITKPVAYMILAKLALNAEVYADDNWTDGNRPAGKNIKFTVDGKEMNAWEATIAYVDKLEALGYKLQGNFSENFAVANETSVENIFTVPMDPVAYPDAKDYNLVRTRHYDHATAYGQSGWNGSCATVKAMNVFKFGTADEDPRCKLTYFTGEVTGPDGKTIYTEWDGQKVPLKYEPNAPKVYMDASDGLLVKTAGARMAKYEFDQNAQDGGNLHGNDCVIFRFADALLMKAEAKIRLGQNGDDEVNQVRNRVGAKPLQNVTLDTLLDERMLELAWEGVRRQDLIRFGKFTEATVDRYVGVKHFASSLDYQEDKTGYTTVFSIYADILSLNPNLTQNPGY
- soluble on expression in E. coli: not soluble

Sequence: MGLIVDDDNDGEVLIPPPNFSMVEDEIYRSGFPELENFGFLSTLNLRSIIYLCPEPYPEDNLKSLASNNIKLFQFGIEGKTDPPTPMPKDTVLSALRVLVDVRNHPILIHCKRGKHRTGCLVGCLRKVQNWCLSSVLEEYQKCAGLKWRQRDLRFIEDFDVLRLKQCLYSIIYQYNGYGLKRRKLLYQEENVVQEQQKPQATKG
- soluble on expression in E. coli: soluble

Sequence: MNPILAMLKENNISNEQINELFQTLTQNPLAAMATLAQLGLPQDKMQMVLAQVMQNPALIKQAVEELGLDFAKVEAAKAKLQQ
- soluble on expression in E. coli: not soluble

Sequence: MGSDKIHHHHHHMQNPQQVSASKTLSPILVQGAMDIEVETLIAALGKVTVNTFGSWTFWEGELSGHPVVVSRTEIGLANAAAATTLAIAHYRPKLIINQGTAGGHDPKLYRGDIVIGETSFNMGSYLTKLTPKGQGIHPTQWQNFDMTMYLRENGEVVKHNHFKADPALVEVALSQAHHYTKGNVVKGIIGTGDEWNRELDRINWLHHTFGTAVEEMETSAAALVAEAYKLPFVSIRILSNTDQHDQDCDPQTAVDCQQFVLNIIQQLINTTK
- soluble on expression in E. coli: not soluble

Sequence: PMEQVVRIHASSGTTGKPTVVGYTQNDIDNWANIVARSLRAAGGSAKDKIHVAYGYGLFTGGLGAHYGAERLGATVIPMSGGQTEKQAQLIRDFQPDMIMVTPSYCLNLIEELERQMGGDARGCSLRVGVFGAEPWTLAMRAEIERRLGITALDIYGLSEVMGPGVAMECLETVDGPTI
- soluble on expression in E. coli: not soluble
